Experimental data published in patent US12303551B2, “Cellular immunotherapy compositions and uses thereof” (CERO THERPEUTICS HOLDINGS, INC., priority 2018, dated 2025).

Assays:
[1] = tested on: HCC827 NSCLC adenocarcinoma cells; assay: FACS phagocytosis assay with pHrodo-red labeled HCC827 cells; format: cell-based; conditions: for % phagocytosis (pHrodo-positivity): overnight co-culture with HCC827
Excerpt: FIG. 67B is a bar graph of frequency of phagocytosis among CER-modified CD4+_T cells vs. CER-modified CD8+ T cells
CD4+ or CD3+ T cells were purified from PBMCs, activated, and transduced with lentiviral vector comprising hCER104 nucleic acid. hCER104 is a human CER104 construct comprising a Tim4 binding domain, a Tim4 transmembrane domain, TLR8 engulfment signaling domain, and Dap12 engulfment signaling domain and comprises an amino acid sequence of SEQ ID NO:176. HCC827 cells harbor an EGFR mutation and treatment with EGFR inhibitor osimertinib induces exposure of phosphatidylserine on the cell surface. Transduced T cells were expanded. CER-modified T cells were co-cultured with pHrodo-red labeled HCC827 NSCLC adenocarcinoma cells overnight and evaluated by FACs for pHrodo-positive signals to detect phagocytosis of HCC827 target cells (see, FIG. 67A, box inside FACs plot indicates % phagocytosis). T cell subsets were analyzed for their capacity to phagocytosis using antibody staining. Frequency of in vitro phagocytosis among CD4+ CER-modified T cells was much higher than CD8+ CER-modified T cells (see, FIG. 67B).

[2] = tested on: HCC827 NSCLC adenocarcinoma cells; assay: HCC827 viability (MTT) and phase contrast microscopy after co-culture with or without osimertinib; format: cell-based
Method: Assays were performed at an effector to target cell ratio of 5:1 in the presence or absence of an EGFR small molecular inhibitor (1 nM osimertinib). Co-culture of hCER104 modified CD3+ T cells was compared with co-culture of purified hCER104 modified CD4+ T cells. Cell viability was quantified using 3-(4,5-dimethylthiazol-2-yl)-2,5-diphenyltetrazolium bromide (MTT) assay.
Specific target cell killing of HCC827 observed in hCER104 modified T cells in the presence of osimertinib.
hCER104 modified CD3+ T cells and hCER104 modified CD4+ T cells were co-cultured with HCC827 NSCLC adenocarcinoma cells treated for 48 hours with or without 1 nM osimertinib at an effector to target cell ratio of 5:1. Mock transduced T cells were used as control.

HCC827 NSCLC cells = assay: FACS phagocytosis assay of TAMRA-SE labeled HCC827 cells with or without bafilomycin; format: cell-based; conditions: CER-modified T cells, osimertinib treated HCC827, FACS
Excerpt: FIGS. 73A-73B show ablation of CER-induced phagocytosis by bafilomycin, an inhibitor of phagolysosome V-ATPase. CER104-modified CD4+ T cells and mock transduced CD4+ T cells (control) were co-cultured with HCC827 cells that were labeled with TAMRA-SE fluorescent dye and treated with osimertinib. Phagocytosis was quantified by FACs.
T cells were transduced with lentiviral vector comprising hCER104 nucleic acid as described in Example 6. hCER104 modified T cells were co-cultured with HCC827 adenocarcinoma cells with or without osimertinib. […] FACs plots from in vitro phagocytosis assays in hCER104 modified T cells or mock transduced control T cells are shown in FIG. 73B.

[3] = tested on: HPV+ SCC152/luceriferase+ cells; assay: SCC152/luciferase xenograft in NSG mice, bioluminescence imaging; format: in vivo; conditions: CER CD4+ T cells added 1:1 to HPV E7 CD8+ T cells
Method: HPV+ SCC152 engrafted NSG mice were treated with HPV E7 TCR modified CD8+ T cells+CD4+ T cells (mock transduced), HPV E7 TCR modified CD8+ T cells+hCER104 modified CD4+ T cells, or untreated. FIG. 74B is a graph of mean values of bioluminescence signal intensities obtained for treatment group.
HPV+ SCC152/luceriferase^+ cells were engrafted in NSG mice. Once tumors were established, mice were treated with HPV E7 specific TCR (SEQ ID NO:84) modified CD8+ T cells+mock transduced CD4+ T cells, HPV E7 specific TCR modified CD8+ T cells+hCER104 (SEQ ID NO:176) modified CD4+ T cells, or untreated (n=5 per treatment group). HPV E7 CD8+ T cells and hCER104 CD4+ T cells were administered at a 1:1 ratio. Tumor volume was measured over time by bioluminescence imaging (see, FIGS. 74A-74B).

[4] = tested on: E6/E7-specific human TCR/NFAT reporter cell line; assay: Antigen cross-presentation assay with E6/E7 TCR Jurkat NFAT luciferase reporter cells; format: cell-based; conditions: CD4+ and CD8+ CER T cells after phagocytosing HPV+ tumor cells; compared to mock transduced T cells
Method: In a phagocytic assay step, CD4+ and CD8+ T cell lines expressing CERs were co-cultured with the CD4+ and CD8+ T cells expressing HPV E7 specific TCR and SCC152 (HPV+) cells overnight. The following day CER+ T cells were subsequently FACS-sorted. FACS plot depicts CT violet^+ CERs. Following FACS purification, antigen presentation of HPV oncoproteins was evaluated. CER-expressing cells were co-cultured at a 1:2 ratio with E6 & E7-specific TCR/NFAT reporter cell lines, and NFAT activation measured over time using a plate reader.
CER-expressing CD4^+ and CD8^+ T cell lines, after phagocytosing HPV^+ tumor cells, are capable of cross-presentation of E7 HPV oncoproteins to E7 TCR/NFAT reporter-expressing T cells as measured by NFAT activation.
CD4+ and CD8+ CER-expressing T cell lines were established from human PBMCs. […]
For assessing MHC-I cross-presentation, SCC152 HPV^+ cells were co-cultured overnight with CER123-expressing CD4+ and CD8+ T cells or mock-transduced (vector only) T cells in the presence of T cells expressing an E7-specific TCR. […] NFAT activation was assessed at serial time points (0, 6, 12, 24, and 72 hrs) by measuring luciferase activity in cell culture supernatants. […] Induction of E711-19-specific Jurkat T cells were quantified by luminescence of NFAT signaling at indicated time points and compared to Mock (vector-alone) transduced T cells (FIG. 63).

Molecule	% phagocytosis (pHrodo-positivity) ([1]; CER-modified CD4+ T cells) [%]	% phagocytosis (pHrodo-positivity) ([1]; CER-modified CD8+ T cells) [%]	frequency of in vitro phagocytosis, CD4+ versus CD8+ CER-modified T cells ([1]; HCC827 target cells)	killing of HCC827 cells, phase contrast microscopy ([2]; 48 hours co-culture, CD4+ and CD3+ T cells, in the presence of osimertinib)	HCC827 cell viability (MTT), CD4+ versus CD3+ CER-modified T cells ([2]; 48 hours, effector to target 5:1, with or without 1 nM osimertinib)	phagocytosis of fluorescent dye-labeled HCC827 cells (HCC827 NSCLC cells)	tumor killing (bioluminescence) [3]	cross-presentation of HPV E7 oncoproteins (NFAT luminescence) [4]
hCER104: human CER104 construct: Tim4 binding domain, Tim4 transmembrane domain, TLR8 and Dap12 engulfment signaling domains; SEQ ID NO:176 (protein, hCER104) ETVVTEVLGHRVTLPCLYSSWSHNSNSMCWGKDQCPYSGCKEALIRTDGMRVTSRKSAKYRLQGTIPRGDVSLTILNPSESDSGVYCCRIEVPGWFNDVKINVRLNLQRASTTTHRTATTTTRRTTTTSPTTTRQMTTTPAALPTTVVTTPDLTTGTPLQMTTIAVFTTANTCLSLTPSTLPEEATGLLTPEPSKEGPILTAESETVLPSDSWSSVESTSADTVLLTSKESKVWDLPSTSHVSMWKTSDSVSSPQPGASDTAVPEQNKTTKTGQMDGIPMSMKNEMPISQLLMIIAPSLGFVLFALFVAFLHHLFYWDVWFIYNVCLAKVKGYRSLSTSQTFYDAYISYDTKDASVTDWVINELRYHLEESRDKNVLLCLEERDWDPGLAIIDNLMQSINQSKKTVFVLTKKYAKSWNFKTAFYLALQRLMDENMDVIIFILLEPVLQHSQYLRLRQRICKSSILQWPDNPKAEGLFWQTLRNVVLTENDSRYNNMYVDSIKQYYFLGRLVPRGRGAAEAATRKQRITETESPYQELQGQRSDVYSDLNTQRPYYK	42.0	9.81	much higher	specific cell killing	lower cell viability	exhibited phagocytosis	enhanced tumor killing in vivo	–
CER123: Chimeric engulfment receptor: Tim4 binding, Tim4 transmembrane, TLR2 and TRAF6 signaling; SEQ ID NO: 164 (protein, CER123, amino acids 1-22 are signal peptide) MSKGLLLLWLVTELWWLYLTPAASEDTIIGFLGQPVTLPCHYLSWSQSRNSMCWGKGSCPNSKCNAELLRTDGTRIISRKSTKYTLLGKVQFGEVSLTISNTNRGDSGVYCCRIEVPGWFNDVKKNVRLELRRATTTKKPTTTTRPTTTPYVTTTTPELLPTTVMTTSVLPTTTPPQTLATTAFSTAVTTCPSTTPGSFSQETTKGSAFTTESETLPASNHSQRSMMTISTDIAVLRPTGSNPGILPSTSQLTTQKTTLTTSESLQKTTKSHQINSRQTILIIACCVGFVLMVLLFLAFLHRFHGLWYMKMMWAWLQAKRKPRKAPSRNICYDAFVSYSERDAYWVENLMVQELENFNPPFKLCLHKRDFIPGKWIIDNIIDSIEKSHKTVFVLSENFVKSEWCKYELDFSHFRLFDENNDAAILILLEPIEKKAIPQRFCKLRKIMNTKTYLEWPMDEAQREGFWVNLRAAIKSMSLLNCENSCGSSQSESDCCVAMASSCSAVTKDDSVGGTASTGNLSSSFMEEIQGYDVEFDPPLESKYECPICLMALREAVQTPCGHRFCKACIIKSIRDAGHKCPVDNEILLENQLFPDNFAKREILSLMVKCPNEGCLHKMELRHLEDHQAHCEFALMDCPQCQRPFQKFHINIHILKDCPRRQVSCDNCAASMAFEDKEIHDQNCPLANVICEYCNTILIREQMPNHYDLDCPTAPIPCTFSTFGCHEKMQRNHLARHLQENTQSHMRMLA	–	–	–	–	–	–	–	enhanced cross-presentation efficiency
